# Legend:
# [1] = molecular target: streptokinase (Streptococcus pyogenes) (UniProt P10520); assay: binding saturation; details: cited from earlier work
# [2] = molecular target: PAM, plasminogen-binding group A Streptococcus (GAS) M-protein (S. pyogenes) (UniProt P49054); assay: SPR; PAM amine-coupled to a CM-5 chip (250 RU); hPg variants injected at 0.175-20 nM (up to 800 nM hPg [D219N]), multicycle kinetics, 180 s association, 300 s dissociation; HBS-EP+ (10 mM Na-Hepes/150 mM NaCl, 3 mM EDTA/0.05% polysorbate-20, pH 7.4), 25°C, Biacore X100; 1:1 Langmuir model
# [3] = molecular target: PAM, plasminogen-binding group A Streptococcus (GAS) M-protein (S. pyogenes) (UniProt P49054)
# hPg [D^219N] (human) = assay: SPR; each hPg variant amine-coupled to a CM-5 chip (~1200 RU); SK injected at 0.625-100 nM, multicycle kinetics, 90 s association, 120 s dissociation; HBS-EP+/50 μM NPGB, 25°C, Biacore X100; 1:1 Langmuir model
# [4] = molecular target: hPg [D^139,413,518N] (human); assay: as above
# [5] = molecular target: wild-type (WT) Glu^1-hPg (human plasminogen) (human); assay: as above
# hPg [K^708A] (human) = assay: as above
# hPg [D^139N] (human) = assay: as above
# hPg [D^518N] (human) = assay: as above
# hPg [D^413N] (human) = assay: as above
# Chain of UniProt P49054 (P49054 30-384): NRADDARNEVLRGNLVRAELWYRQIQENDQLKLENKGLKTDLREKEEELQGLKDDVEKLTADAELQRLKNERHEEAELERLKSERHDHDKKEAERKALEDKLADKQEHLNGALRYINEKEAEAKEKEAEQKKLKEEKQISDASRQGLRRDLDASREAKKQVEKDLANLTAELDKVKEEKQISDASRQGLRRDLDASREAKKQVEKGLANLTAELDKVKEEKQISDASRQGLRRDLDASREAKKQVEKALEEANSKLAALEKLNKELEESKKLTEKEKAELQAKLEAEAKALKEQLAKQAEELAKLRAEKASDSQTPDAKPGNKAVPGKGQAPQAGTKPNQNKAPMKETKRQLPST
# Chain of UniProt P10520 (P10520 27-440): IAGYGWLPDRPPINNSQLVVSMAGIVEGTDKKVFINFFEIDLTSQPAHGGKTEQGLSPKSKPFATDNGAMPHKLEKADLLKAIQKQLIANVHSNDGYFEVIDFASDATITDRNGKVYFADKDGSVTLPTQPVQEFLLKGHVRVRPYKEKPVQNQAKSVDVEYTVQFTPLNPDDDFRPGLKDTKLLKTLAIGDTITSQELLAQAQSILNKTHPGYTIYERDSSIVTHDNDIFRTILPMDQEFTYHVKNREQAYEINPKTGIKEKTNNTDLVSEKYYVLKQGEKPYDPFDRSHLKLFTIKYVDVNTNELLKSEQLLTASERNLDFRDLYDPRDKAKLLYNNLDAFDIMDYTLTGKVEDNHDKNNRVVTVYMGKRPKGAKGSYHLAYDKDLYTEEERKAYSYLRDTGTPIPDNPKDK
substance,measurement,setting,value
Glu1-plasminogen (from UniProt P00747),Kd,[1],0.5 nM
"hPg [D^139,413,518N] (natural protein)",Kd,[2],0.7 nM
same,koff,[2],0.0017 s⁻¹
same,kon,[2],2.51e+06 M⁻¹ s⁻¹
hPg [D^139N] (natural protein),Kd,[2],4 nM
same,koff,[2],0.0016 s⁻¹
same,kon,[2],410000 M⁻¹ s⁻¹
same,"rate of SK-mediated activation of hPg to hPm (S2251 hydrolysis), 250 nM PAM against 0 nM PAM",[3],4 fold
hPg [D^413N] (natural protein),Kd,[2],0.7 nM
same,koff,[2],0.00094 s⁻¹
same,kon,[2],1.34e+06 M⁻¹ s⁻¹
hPg [D^518N] (natural protein),Kd,[2],6.7 nM
same,koff,[2],0.0024 s⁻¹
same,kon,[2],360000 M⁻¹ s⁻¹
hPg [K^708A] (natural protein),Kd,[2],1.2 nM
same,koff,[2],0.0012 s⁻¹
same,kon,[2],970000 M⁻¹ s⁻¹
mini-plasminogen mini-hPg (lacking K1-K4) (from UniProt P00747),Kd,[1],0.5 nM
streptokinase (SK) (natural protein),Kd,hPg [D^219N] (human),0.3 nM
same,koff,hPg [D^219N] (human),0.000466 s⁻¹
same,kon,hPg [D^219N] (human),1.55e+06 M⁻¹ s⁻¹
same,Kd,[4],2.1 nM
same,koff,[4],0.000449 s⁻¹
same,kon,[4],206000 M⁻¹ s⁻¹
same,Kd,[5],0.29 nM
same,koff,[5],0.000405 s⁻¹
same,kon,[5],1.39e+06 M⁻¹ s⁻¹
same,Kd,hPg [K^708A] (human),0.21 nM
same,koff,hPg [K^708A] (human),0.000282 s⁻¹
same,kon,hPg [K^708A] (human),1.36e+06 M⁻¹ s⁻¹
same,Kd,hPg [D^139N] (human),0.28 nM
same,koff,hPg [D^139N] (human),0.000302 s⁻¹
same,kon,hPg [D^139N] (human),1.13e+06 M⁻¹ s⁻¹
same,Kd,hPg [D^518N] (human),0.27 nM
same,koff,hPg [D^518N] (human),0.00034 s⁻¹
same,kon,hPg [D^518N] (human),1.29e+06 M⁻¹ s⁻¹
same,Kd,hPg [D^413N] (human),0.26 nM
same,koff,hPg [D^413N] (human),0.000302 s⁻¹
same,kon,hPg [D^413N] (human),1.22e+06 M⁻¹ s⁻¹
wild-type (WT) Glu^1-hPg (human plasminogen) (natural protein),Kd,[2],5.4 nM
same,koff,[2],0.0013 s⁻¹
same,kon,[2],240000 M⁻¹ s⁻¹
same,"rate of SK-mediated activation of hPg to hPm (S2251 hydrolysis), 250 nM PAM against 0 nM PAM",[3],4 fold
